Measurements: the nanobody polyreactivity screen of Harvey et al. (2022)

Assay: yeast display, Sf9 membrane polyspecificity reagent, FACS + sequencing; frameworks hold sequencing errors
How it was run: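 A synthetic nanobody library was expressed on Saccharomyces cerevisiae BJ5465 by galactose induction for 36–48 hours. The library was stained for 1 hour at 4 °C with 10% biotinylated, detergent-solubilized Sf9 membrane reagent and enriched with streptavidin microbeads before FACS. Low and high (top ~1%) gates were set on anti-HA fluorescence for expression and streptavidin fluorescence for reagent binding, and each polyreactivity label reflects the gate of origin.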

Sequence | polyreactivity (PSR sort gate)
QVQLVESGGGLVQAGGSLRLSCAASGMTFHRYAMGWYRQTPGKERELVAAINYSGGRTYYADSVKGRFTISRDNAKNTVYLQMNSLKPEDTAVYYCAAPRASGYYWGQGTQVTVSS | high polyreactivity
QVQLVESGGGLVQAGGSLRLSCAASGNIFAIYAMGWYIQAPGKEREFVAAIDWSVASTYYADSVKGRFTISRDNAKNTVYLQMNSLKPEDTAVYYCAAELYGLKYAYYLSYDYWGQGTQVTVSS | high polyreactivity
QVQLVESGGGLVQAGGSLRLSCAASGNIFAWYAMGWYRQAPGKERELVADISSRGGSTYYADSVKGRFTISRDNAKITVYLQMNSLKPEDSAVYYCAAVWYWTQDYDYWGLGTQVTVSS | low polyreactivity
QVQLVESGGGLVQAGGSLRLSCAASGNIFAWYAMGWYRQAPGKERELVADISSRGGSTYYADSVKGRFTISRDNAKNTVYLQMNRLKPEDTAVYYCAAVWYWTQDYDYWGQGTQVTVSS | low polyreactivity
QVQLVESGGGLVQAGGSLRLSCAASGNIFAYYALGWYRQAPGKEREFVAAIRSSGVSTYYADSVKGRFTISRDNAKNTVYLQMNSLKPEDTAVYYCAADSITGGWLIVSPPYNYTYDYWGQGTQVTVSS | low polyreactivity
QVQLVESGGGLVQAGGSLRLSCAASGNIFDGYAMGWYRQAPGKERELVAAITSSAGSTYYADSVKGRFTISRDNAKNTVYLQMNSLKPEDTAVYYCNKVTKYRPIEGSWGQGTQVTVSS | high polyreactivity
QVQLVESGGGLVQAGGSLRLSCAASGNIFDRYAMGWYRQAPGKERELVAGITWSGGSTYYADSVKGRFTISRDNAKNTVYFQMTSLKPEDTAVYYCGKANYYWGQGTQVTVSS | low polyreactivity
QVQLVESGGGLVQAGGSLRLSCAASGNIFDRYVMGWYRQAPGKERELVAAISVSGGSTYYADSVKGRFTISRDNAKNTVFLQMNSLKPEDTAVYYCAAHSRLINWYDYWGQGTQVTVSS | high polyreactivity
QVQLVESGGGLVQAGGSLRLSCAASGNIFESYGMGWYRQAPGKERELVATINTSSGSTYYADSVKGRFTISRDNAKNTVYLQMNSLKPEDTAVSSCAGEWYPYAWGYGYWGQGTQVTVSS | low polyreactivity
QVQLVESGGGLVQAGGSLRLSCAASGNIFFRNAMGWYRQAPGKERELVAAISWRGTSTYYADSVKGRFTISRDNAKNTVYLQMNSLKPEDTAVYYCAARGLWPYDYWGQGTQVTVSS | low polyreactivity
QVQLVESGGGLVQAGGSLRLSCAASGNIFGFYTMGWYRQAPGKERELVAAIRSRGGSTNYADSVKGRFTISRDNAKNTVYLQMNSLKPEDTAVDYCAADPRYISYDYWGQGTQVTVSS | low polyreactivity
QVQLVESGGGLVQAGGSLRLSCAASGNIFGVYTMGWYRQAPGKERELVAVITSGGRTYYADSVKGRFTISRDNAKNTVYLQMNSLKPADTAVYYCAADIRYTREEYWGQGPQVTVSS | high polyreactivity
QVQLVESGGGLVQAGGSLRLSCAASGNIFGWYAMGWYRKAPGKERELVAAISSGGRTNYADSVKGRFTISRDYAKNTVYLQMNSLKPEDTAVYYCNKVAGVTGRYYYWGQGTQVTVSS | low polyreactivity
QVQLVESGGGLVQAGGSLRLSCAASGNIFGYYAMGWYRQAPGKERELVAAIRTRGGRTYYADSVKGRFTISRDNAKNTVYLQMNSLKPEDTAVYYCAARSIAGFWRYDYWGQGTQVTVSS | high polyreactivity
QVQLVESGGGLVQAGGSLRLSCAASGNIFGYYAMGWYRQAPGKERELVAAITTTGGSTYYADSVKGRFTISRDNAKNTVYLQMNSLKPEDTAVYYCAAETGYWYYYWGQGTLVTVSS | high polyreactivity
QVQLVESGGGLVQAGGSLRLSCAASGNIFHFYAMGWYRQAPGKERELVATISWRGDGTYYADSVKGRFTISRDNAKYTVYLQMNSLKPEDTAVYYCAARGVWPEYDYWGQGTQVTVSS | low polyreactivity
QVQLVESGGGLVQAGGSLRLSCAASGNIFIYNAMGWYRQAPGKERELVAAISVSGGDTYYADSVKGRFTISRDNAKNTVYLQMNSLKPEDTAVYYCAAEAEYIELDYWGQGTQVTVSS | low polyreactivity
QVQLVESGGGLVQAGGSLRLSCAASGNIFLRYAMGWYRQAPGKERELVAAISYSGGGSTYYADSVKGRFTISRDNAKNTVYLQMNSLKPEDTAVYYCAKVLTSRTQFFDYDYWGQGTQVSVSS | low polyreactivity
QVQLVESGGGLVQAGGSLRLSCAASGNIFLYYAMGWYRQAPGKERELVADIDSSGASTYYADSVKGRFTISRDNAKNTVYLQMNSLKPEDTAVYYCATEDFRTDTGMYYWGQGTQVTVSS | low polyreactivity
QVQLVESGGGLVQAGGSLRLSCAASGNIFLYYAMGWYRQAPGKERELVADIDSSGASTYYADSVKGRFTISRDNAKNTVYLQMNSLKPEDTAVYYGAKDSNRYSYYSPYDSWGQGTQVTVSS | low polyreactivity
QVQLVESGGGLVQAGGSLRLSCAASGNIFPAYVMGGYRQAPGKDRELVAAITDSDGSTFYADSVKGRFTISRDNAKNTVYLQMNSLKAEDTAVYYCAAYSYRQGWGFGYWGQGTQVTVSS | low polyreactivity

Sequence | polyreactivity (PSR sort gate)
QVQLVESGGGLVQAGGSLRLSCAASGNIFPYYAMGWYRQAPGKERELVASITWSGGRTYYADSVKGRFTISRDNAKNTVYLQMNSLKPEDTAVYYCARRRVYRWYTGDYWGQGTQVTVSS | low polyreactivity
QVQLVESGGGLVQAGGSLRLSCAASGNIFPYYAMGWYRQAPGKERELVAVISYGGGNTRYADSVKGRFTISRDNAKNTVYLQMNSLIPEDTAVYYCAARRWGAAPRPYEGYYWGQGSQVTVSS | low polyreactivity
QVQLVESGGGLVQAGGSLRLSCAASGNIFQRYAMGWYRQAPGKERDLVAAISYSGARTYYADSVKGRFTISRDNAKNTDYLQMNSLKPEDTAVYYCATYGGLTKFRLAYDYWGQGTQVTVSS | high polyreactivity
QVQLVESGGGLVQAGGSLRLSCAASGNIFRAYAMGWYRQAPGKERELVARISASGGSTYYADSVKGRFTISRDNAKNTVYLQMNSLKPEDTAVYYCAARVRVRLGRNWSSYYYWGQGTQVTVSS | high polyreactivity
QVQLVESGGGLVQAGGSLRLSCAASGNIFRGYTMGWYRQAPGKERELVATITWNGVSTFYADSVKGRFTISRDNAKNTVYLEMNSLKPEDTAVYYCAAYYPSHDYSGFWSDTYEYWGQGTQVTVSS | low polyreactivity
QVQLVESGGGLVQAGGSLRLSCAASGNIFRGYTMGWYRQAPGKERELVATITWNGVSTFYADSVKGRFTISRDNAKNTVYLQMNSLIPEETAVYYCPAYYPSHDYSGVWSDTYEYWGQGTQVTVSS | low polyreactivity
QVQLVESGGGLVQAGGSLRLSCAASGNIFRINGMGWYRQAPGKERELVASITRSGSTYYADSVKGRFTISRDNANNTVYLKMNSLKPEDTAVYYCAADSRRYGVRFDYWGQGTQVTVSS | low polyreactivity
QVQLVESGGGLVQAGGSLRLSCAASGNIFRKNAMGWYRQAPGKERELVAAISRRGGNTYYADSVKGRFTISRDNAKNTVYLQMNSLKPEDTAVYYCAADWSPTAASDYWGQGTQVTVSS | high polyreactivity
QVQLVESGGGLVQAGGSLRLSCAASGNIFRPYTMGWYSQAPGKERQLVARISSGGSTNYADSVKGRFTISRDNAKNTVYLQMNSLKPEDTAVYYCAKRYGTVHSRYGYWGQGTQVTVSS | high polyreactivity
QVQLVESGGGLVQAGGSLRLSCAASGNIFRRYAMGWYRQAPGKERELVAAISRGGTRTYYADSVKGRFTISRDNAKNTVYLQMNSLKPEDTAVYYCNAEVKTNYRIADYDYWGQGTQVTVSS | high polyreactivity
QVQLVESGGGLVQAGGSLRLSCAASGNIFRYYVMGLYRQAAGKEREFVAAITSSGGSTYYADSVKGRFTISRDNAKKTVYLQMNSLKPEDTAVYYCAKDYWDPGWAEYDYWGQGTQVTVSS | low polyreactivity
QVQLVESGGGLVQAGGSLRLSCAASGNIFSTYAIGWTRQAPGKERELVASISENGGSTYYADSVKGRFTISRDNAKNTVYLQMNSLKPDDTAVYYCAKGQLYSLFFQHDAPYRYGYWGQGTQVTVSS | low polyreactivity
QVQLVESGGGLVQAGGSLRLSCAASGNIFSWYAKGWYRQAPGKERELVAAITSGGRTYYADSVKGRFTISRDNAKNTVYLQMNSLKPEDTAVYYCNAVSRLYNRRDYWVQGTQVTVSS | high polyreactivity
QVQLVESGGGLVQAGGSLRLSCAASGNIFTYNTMGWYRQAPRKERELVAAISSGGSTYYADSVKGRFTISRDNAKNTVYLQMNSLKPEDTAVYYCNRRRWLWQTARGDYWGQGTQVTVSS | high polyreactivity
QVQLVESGGGLVQAGGSLRLSCAASGNIFVRYAMGWYRQAPGKERELVAAISRGGRTNYADSVKGRFTISRDNAKNTVYLQMNSLKPEDTAVYYCAADVRYHFYYWGQGTQVTVSS | high polyreactivity
QVQLVESGGGLVQAGGSLRLSCAASGNIFVWYDMGWYREAPGKERELVATITSSGGSTYYADSVKGRFTISRDNAKNTVYLQMNSLKPEDTAVYYCNALPYYRDDYWGQGTQVTVSS | low polyreactivity
QVQLVESGGGLVQAGGSLRLSCAASGNIFWRYGMGWYRQAPGKERELVAAITSGGTGTYYADSVKGRFTISRDNAKNTVYLQMNSLKPEDTAVYYCAARRWTNHYFYGWFYYWGQGTQVTVSS | high polyreactivity
QVQLVESGGGLVQAGGSLRLSCAASGNIFWWNAMGWYRQAPGKERELVAAITSDSTTYYADSVKGRFTISRDNAKNTVYLQMNSLKPEDTAVYYCNTVAYLRRFDKWGMNYWGQGTQVTVSS | low polyreactivity
QVQLVESGGGLVQAGGSLRLSCAASGNIFYPNAMGWYRQAPWKERELVARISWRGVSTYYADSVKGRFTISRDNAKNNVYLQMNSLKPEDTEVYYCNVRPYYGRTRIKYDYWGQGTQVTVSS | high polyreactivity
QVQLVESGGGLVQAGGSLRLSCAASGNIFYRYPMGWYRQAPGKEREMVAAISRSGGSTYYADSVKGRFTISRDNAKNSVYLQRNSLKPEDTAVYYCAAEYQGFWWYGDYDYWGQGTQVTVSS | high polyreactivity
